B1: FAM46C (parent)
chain: VRSRLEEAGIKVHDVRLNGSAAGH

Variants of: B1
Assay: protein stability index of a GFP-peptide fusion (GPS, HEK-293T) (PSI 1-6); higher = more stable
Conditions: c terminus: a fixed tail appended
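Further: lentivirally expressed fusions sorted by FACS into six bins by GFP to DsRed ratio, PSI derived from sequencing read proportions per bin multiplied by bin number.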

**Q.** With VRSRLEEAGIKGHDVRLNGSAAGH [V12G] as the variant, how does the protein stability index read?
**A.** 4.04

**Q.** For VRSRLEEAGIKAHDVRLNGSAAGH [V12A], which protein stability index is on record?
**A.** 3.93

**Q.** Which protein stability index does the source give for VRSRLEEAGIKIHDVRLNGSAAGH [V12I] here?
**A.** 2.67

**Q.** Which protein stability index does the source give for VRSRLEEAGIKVHEVRLNGSAAGH [D14E] here?
**A.** 2.4

**Q.** With VRSRLEEAGIKVHQVRLNGSAAGH [D14Q] as the variant, how does the protein stability index read?
**A.** 2.56

**Q.** Which protein stability index does the source give for VRSRLEEAGIKVHHVRLNGSAAGH [D14H] here?
**A.** 3.04

**Q.** With VRSRLEEAGIKVHMVRLNGSAAGH [D14M] as the variant, how does the protein stability index read?
**A.** 1.79

**Q.** With VRSRLEEAGIKVHTVRLNGSAAGH [D14T] as the variant, how does the protein stability index read?
**A.** 2.8

**Q.** With VRSRLEEAGIKVHLVRLNGSAAGH [D14L] as the variant, how does the protein stability index read?
**A.** 2.43

**Q.** For VRSRLEEAGIKVHWVRLNGSAAGH [D14W], which protein stability index is on record?
**A.** 1.62

**Q.** For VRSRLEEAGIKVHPVRLNGSAAGH [D14P], which protein stability index is on record?
**A.** 4.54

**Q.** With VRSRLEEAGIKVHSVRLNGSAAGH [D14S] as the variant, how does the protein stability index read?
**A.** 2.64

**Q.** For VRSRLEEAGIKVHIVRLNGSAAGH [D14I], which protein stability index is on record?
**A.** 1.29

**Q.** Which protein stability index does the source give for VRSRLEEAGIKVHYVRLNGSAAGH [D14Y] here?
**A.** 2.74

**Q.** With VRSRLEEAGIKVHCVRLNGSAAGH [D14C] as the variant, how does the protein stability index read?
**A.** 2.33

**Q.** With VRSRSEEAGIKVHDVRLNGSAAGH [L5S] as the variant, how does the protein stability index read?
**A.** 4.34

**Q.** For VRSRQEEAGIKVHDVRLNGSAAGH [L5Q], which protein stability index is on record?
**A.** 5.12

**Q.** Which protein stability index does the source give for VRSRYEEAGIKVHDVRLNGSAAGH [L5Y] here?
**A.** 3.04

**Q.** For VRSRVEEAGIKVHDVRLNGSAAGH [L5V], which protein stability index is on record?
**A.** 3.7

**Q.** For VRSRWEEAGIKVHDVRLNGSAAGH [L5W], which protein stability index is on record?
**A.** 3.49

**Q.** For VRSRNEEAGIKVHDVRLNGSAAGH [L5N], which protein stability index is on record?
**A.** 4.03

**Q.** For VRSRKEEAGIKVHDVRLNGSAAGH [L5K], which protein stability index is on record?
**A.** 3.97

**Q.** Which protein stability index does the source give for VRSRREEAGIKVHDVRLNGSAAGH [L5R] here?
**A.** 4

**Q.** Which protein stability index does the source give for VRSRTEEAGIKVHDVRLNGSAAGH [L5T] here?
**A.** 4.59

**Q.** Which protein stability index does the source give for VRSRLEEAGIKVGDVRLNGSAAGH [H13G] here?
**A.** 4.18

**Q.** Which protein stability index does the source give for VRSRLEEAGIKVTDVRLNGSAAGH [H13T] here?
**A.** 1.86

**Q.** With VRSRLEEAGIKVKDVRLNGSAAGH [H13K] as the variant, how does the protein stability index read?
**A.** 2.02

**Q.** Which protein stability index does the source give for VRSRLEEAGIKVPDVRLNGSAAGH [H13P] here?
**A.** 4.08

**Q.** With VRSRLEEAGIKVSDVRLNGSAAGH [H13S] as the variant, how does the protein stability index read?
**A.** 1.19

**Q.** With VRSRLEEAGIKVEDVRLNGSAAGH [H13E] as the variant, how does the protein stability index read?
**A.** 4.06

**Q.** For VRSRLEEAGIKVQDVRLNGSAAGH [H13Q], which protein stability index is on record?
**A.** 2.42

**Q.** For VRSRLEEAGIKVIDVRLNGSAAGH [H13I], which protein stability index is on record?
**A.** 1.03

**Q.** For VRSRLEEAGIKVADVRLNGSAAGH [H13A], which protein stability index is on record?
**A.** 2.98

**Q.** Which protein stability index does the source give for VRSRLEEAGIKVRDVRLNGSAAGH [H13R] here?
**A.** 2.32

**Q.** Which protein stability index does the source give for VRSRLEEAGIKVYDVRLNGSAAGH [H13Y] here?
**A.** 1.25

**Q.** Which protein stability index does the source give for VRSRLEEAGIKVDDVRLNGSAAGH [H13D] here?
**A.** 1.02

**Q.** With VRSRLEEAGIKVFDVRLNGSAAGH [H13F] as the variant, how does the protein stability index read?
**A.** 1.74

**Q.** With VRSRLEEAGIKVWDVRLNGSAAGH [H13W] as the variant, how does the protein stability index read?
**A.** 2.02

**Q.** With VRSRLEEAGIKVNDVRLNGSAAGH [H13N] as the variant, how does the protein stability index read?
**A.** 2.74

**Q.** With VRSRLEEAGIKVMDVRLNGSAAGH [H13M] as the variant, how does the protein stability index read?
**A.** 1.53

**Q.** Which protein stability index does the source give for VRSRLEEMGIKVHDVRLNGSAAGH [A8M] here?
**A.** 2.58

**Q.** For VRSRLEENGIKVHDVRLNGSAAGH [A8N], which protein stability index is on record?
**A.** 3.17

**Q.** Which protein stability index does the source give for VRSRLEEPGIKVHDVRLNGSAAGH [A8P] here?
**A.** 3.88

**Q.** With VRSRLEERGIKVHDVRLNGSAAGH [A8R] as the variant, how does the protein stability index read?
**A.** 1.96

**Q.** With VRSRLEEFGIKVHDVRLNGSAAGH [A8F] as the variant, how does the protein stability index read?
**A.** 1.85

**Q.** For VRSRLEEIGIKVHDVRLNGSAAGH [A8I], which protein stability index is on record?
**A.** 1.66

**Q.** For VRSRLEETGIKVHDVRLNGSAAGH [A8T], which protein stability index is on record?
**A.** 3.2

**Q.** For VRSRLEEKGIKVHDVRLNGSAAGH [A8K], which protein stability index is on record?
**A.** 3.38

**Q.** With VRSRLEEDGIKVHDVRLNGSAAGH [A8D] as the variant, how does the protein stability index read?
**A.** 4.49

**Q.** Which protein stability index does the source give for VRSRLEEWGIKVHDVRLNGSAAGH [A8W] here?
**A.** 2.19

**Q.** For VRSRLEEYGIKVHDVRLNGSAAGH [A8Y], which protein stability index is on record?
**A.** 1.13

**Q.** With VRSRLEEEGIKVHDVRLNGSAAGH [A8E] as the variant, how does the protein stability index read?
**A.** 4.46

**Q.** With VRSRLEEHGIKVHDVRLNGSAAGH [A8H] as the variant, how does the protein stability index read?
**A.** 3.12

**Q.** With VRSRLEEAGIKVHDVRENGSAAGH [L17E] as the variant, how does the protein stability index read?
**A.** 4.2

**Q.** Which protein stability index does the source give for VRSRLEEAGIKVHDVRPNGSAAGH [L17P] here?
**A.** 2.6

**Q.** For VRSRLEEAGIKVHDVRANGSAAGH [L17A], which protein stability index is on record?
**A.** 3.15

**Q.** For VRSRLEEAGIKVHDVRINGSAAGH [L17I], which protein stability index is on record?
**A.** 2.53

**Q.** Which protein stability index does the source give for VRSRLEEAGIKVHDVRDNGSAAGH [L17D] here?
**A.** 4

**Q.** Which protein stability index does the source give for VRSRLEEAGIKVHDVRCNGSAAGH [L17C] here?
**A.** 2.61

**Q.** With VRSRLEEAGIKVHDVRQNGSAAGH [L17Q] as the variant, how does the protein stability index read?
**A.** 4.23

**Q.** With VRSRLEEAGIKVHDVRFNGSAAGH [L17F] as the variant, how does the protein stability index read?
**A.** 2.47

**Q.** With VRSRLEEAGIKVHDVRGNGSAAGH [L17G] as the variant, how does the protein stability index read?
**A.** 4.55

**Q.** Which protein stability index does the source give for VRSRLEEAGIKVHDVRVNGSAAGH [L17V] here?
**A.** 2.67

**Q.** For VRSRLEEAGIKVHDVRKNGSAAGH [L17K], which protein stability index is on record?
**A.** 4.53

**Q.** With VRSRLEEAGIKVHDVRSNGSAAGH [L17S] as the variant, how does the protein stability index read?
**A.** 4.33

**Q.** Which protein stability index does the source give for VRSRLEEAGIKVHDVRRNGSAAGH [L17R] here?
**A.** 3.52

**Q.** With VRSRLEEAGIKVHDVRNNGSAAGH [L17N] as the variant, how does the protein stability index read?
**A.** 3.75

**Q.** Which protein stability index does the source give for VRSRLEEAGIKVHDVRLDGSAAGH [N18D] here?
**A.** 2.81

**Q.** Which protein stability index does the source give for VRSRLEEAGIKVHDVRLKGSAAGH [N18K] here?
**A.** 3.56

**Q.** With VRSRLEEAGIKVHDVRLTGSAAGH [N18T] as the variant, how does the protein stability index read?
**A.** 1.87

**Q.** With VRSRLEEAGIKVHDVRLSGSAAGH [N18S] as the variant, how does the protein stability index read?
**A.** 4.1

**Q.** For VRSRLEEAGIKVHDVRLMGSAAGH [N18M], which protein stability index is on record?
**A.** 3.59

**Q.** With VRSRLEEAGIKVHDVRLCGSAAGH [N18C] as the variant, how does the protein stability index read?
**A.** 2.64

**Q.** Which protein stability index does the source give for VRSRLEEAGIKVHDVRLPGSAAGH [N18P] here?
**A.** 3.12

**Q.** For VRSRLEEAGIKVHDVRLQGSAAGH [N18Q], which protein stability index is on record?
**A.** 1.96

**Q.** Which protein stability index does the source give for VRSRLEEAGIKVHDVRLVGSAAGH [N18V] here?
**A.** 2.7

**Q.** Which protein stability index does the source give for VRSRLEEAGIKVHDVRLWGSAAGH [N18W] here?
**A.** 2.13

**Q.** With VRSRLEEAGIKVHDVRLLGSAAGH [N18L] as the variant, how does the protein stability index read?
**A.** 1.16

**Q.** For VRSRLEEAGIKVHDVRLEGSAAGH [N18E], which protein stability index is on record?
**A.** 1.53

**Q.** With VRSRLEEAGIKVHDVRLGGSAAGH [N18G] as the variant, how does the protein stability index read?
**A.** 2.02

**Q.** With VRSRLSEAGIKVHDVRLNGSAAGH [E6S] as the variant, how does the protein stability index read?
**A.** 2.7

**Q.** With VRSRLNEAGIKVHDVRLNGSAAGH [E6N] as the variant, how does the protein stability index read?
**A.** 3.54

**Q.** Which protein stability index does the source give for VRSRLWEAGIKVHDVRLNGSAAGH [E6W] here?
**A.** 1.64

**Q.** With VRSRLHEAGIKVHDVRLNGSAAGH [E6H] as the variant, how does the protein stability index read?
**A.** 2.9

**Q.** For VRSRLDEAGIKVHDVRLNGSAAGH [E6D], which protein stability index is on record?
**A.** 3.09

**Q.** For VRSRLREAGIKVHDVRLNGSAAGH [E6R], which protein stability index is on record?
**A.** 2.59

**Q.** With VRSRLMEAGIKVHDVRLNGSAAGH [E6M] as the variant, how does the protein stability index read?
**A.** 1.71

**Q.** Which protein stability index does the source give for VRSRLYEAGIKVHDVRLNGSAAGH [E6Y] here?
**A.** 2.1

**Q.** With VRSRLGEAGIKVHDVRLNGSAAGH [E6G] as the variant, how does the protein stability index read?
**A.** 3.06

**Q.** Which protein stability index does the source give for VRSRLPEAGIKVHDVRLNGSAAGH [E6P] here?
**A.** 3.71

**Q.** For VRSRLTEAGIKVHDVRLNGSAAGH [E6T], which protein stability index is on record?
**A.** 2.44

**Q.** For VRSRLQEAGIKVHDVRLNGSAAGH [E6Q], which protein stability index is on record?
**A.** 3.22

**Q.** Which protein stability index does the source give for VRSRLIEAGIKVHDVRLNGSAAGH [E6I] here?
**A.** 2.54

**Q.** Which protein stability index does the source give for VRSRLFEAGIKVHDVRLNGSAAGH [E6F] here?
**A.** 2.46

Source: the supplement of paper PMC10567573
